We go through six molecules from patent US20160108115 (published 2016).

For one assay, the target named is T1, FcγRIIa (human, UniProt P12318).
T1 chain: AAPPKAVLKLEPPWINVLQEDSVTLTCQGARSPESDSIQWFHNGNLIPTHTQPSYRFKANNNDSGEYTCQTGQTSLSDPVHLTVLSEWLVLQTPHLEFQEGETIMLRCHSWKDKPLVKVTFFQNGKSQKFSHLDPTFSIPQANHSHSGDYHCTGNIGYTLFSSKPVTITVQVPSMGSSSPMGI
The assay can be described thus: SPR, pH 7.4. (In general: SPR reads the build-up and loss of mass on a sensor chip optically.)

Another assay addresses T2, FcγRIIb/c (human, UniProt P31994).
T2 chain: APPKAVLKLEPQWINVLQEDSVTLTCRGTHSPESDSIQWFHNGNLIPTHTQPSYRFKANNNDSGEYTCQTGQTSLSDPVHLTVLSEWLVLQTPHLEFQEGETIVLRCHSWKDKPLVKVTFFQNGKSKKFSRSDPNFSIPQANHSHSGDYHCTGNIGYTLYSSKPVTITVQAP
Description: SPR, pH 7.4.

Assay [1] has as its target T3, human C5 (human, UniProt P01031). Description: SPR.
Assay [2] concerns the target T3, human C5. The assay can be described thus: SPR. This is another data set of the same source.
In assay [3] the target is T4, mouse C5 (mouse, UniProt P06684).
T4 chain 1: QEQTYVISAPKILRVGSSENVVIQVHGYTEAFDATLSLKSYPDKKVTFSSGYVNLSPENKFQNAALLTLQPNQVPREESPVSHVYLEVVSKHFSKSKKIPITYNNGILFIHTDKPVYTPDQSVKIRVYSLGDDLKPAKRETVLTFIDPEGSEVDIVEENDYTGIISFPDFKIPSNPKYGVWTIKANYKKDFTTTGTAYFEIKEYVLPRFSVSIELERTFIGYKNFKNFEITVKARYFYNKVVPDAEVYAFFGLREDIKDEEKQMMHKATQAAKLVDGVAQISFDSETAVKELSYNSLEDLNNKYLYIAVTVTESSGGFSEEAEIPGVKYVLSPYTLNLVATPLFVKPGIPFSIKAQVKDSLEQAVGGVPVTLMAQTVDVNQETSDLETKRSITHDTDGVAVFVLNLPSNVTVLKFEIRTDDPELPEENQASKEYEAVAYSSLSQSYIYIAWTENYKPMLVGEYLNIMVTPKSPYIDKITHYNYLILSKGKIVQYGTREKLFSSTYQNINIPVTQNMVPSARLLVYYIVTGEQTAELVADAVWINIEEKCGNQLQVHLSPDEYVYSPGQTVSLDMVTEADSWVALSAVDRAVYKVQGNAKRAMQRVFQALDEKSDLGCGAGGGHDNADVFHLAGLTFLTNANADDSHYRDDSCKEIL
T4 chain 2: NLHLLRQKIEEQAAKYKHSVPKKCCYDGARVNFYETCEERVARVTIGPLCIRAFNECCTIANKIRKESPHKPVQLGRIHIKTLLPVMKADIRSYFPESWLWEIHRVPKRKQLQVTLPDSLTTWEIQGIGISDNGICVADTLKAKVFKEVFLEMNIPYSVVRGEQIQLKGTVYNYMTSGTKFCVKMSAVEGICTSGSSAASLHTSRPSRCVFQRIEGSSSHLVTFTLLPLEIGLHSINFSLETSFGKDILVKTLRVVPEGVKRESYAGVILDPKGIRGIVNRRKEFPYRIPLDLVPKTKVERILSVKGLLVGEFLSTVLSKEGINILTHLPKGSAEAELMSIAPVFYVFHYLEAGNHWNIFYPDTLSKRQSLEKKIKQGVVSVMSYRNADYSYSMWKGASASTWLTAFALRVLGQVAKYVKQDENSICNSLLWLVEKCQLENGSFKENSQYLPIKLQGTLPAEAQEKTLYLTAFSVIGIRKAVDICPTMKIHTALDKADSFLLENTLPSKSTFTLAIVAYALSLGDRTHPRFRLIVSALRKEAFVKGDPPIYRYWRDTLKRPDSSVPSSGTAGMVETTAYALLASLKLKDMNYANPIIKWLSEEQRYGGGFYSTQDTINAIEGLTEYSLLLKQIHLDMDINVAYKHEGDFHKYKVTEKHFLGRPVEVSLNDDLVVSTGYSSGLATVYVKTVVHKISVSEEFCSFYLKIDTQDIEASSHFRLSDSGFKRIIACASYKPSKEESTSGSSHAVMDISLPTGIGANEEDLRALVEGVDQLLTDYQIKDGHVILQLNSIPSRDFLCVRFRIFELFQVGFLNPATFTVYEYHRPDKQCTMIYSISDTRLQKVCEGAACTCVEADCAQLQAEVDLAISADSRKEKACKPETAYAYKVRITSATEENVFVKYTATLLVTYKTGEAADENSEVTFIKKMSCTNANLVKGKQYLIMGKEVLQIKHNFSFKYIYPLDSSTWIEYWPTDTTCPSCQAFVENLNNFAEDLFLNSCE
The assay can be described thus: SPR, pH 6.0.

Assay [4] concerns the target T4, mouse C5. Description: SPR, pH 7.4.
Assay [5] concerns the target T4, mouse C5. Description: SPR, pH 6.0.

Where two headings read alike, the source gives them in different places.

What is called Kd is the concentration at which binding is half-saturated. Low values mean tighter binding, high ones weaker binding.

B1: eculizumab (full length) (antibody)
chain 1: QVQLVQSGAEVKKPGASVKVSCKASGYIFSNYWIQWVRQAPGQGLEWMGEILPGSGSTEYTENFKDRVTMTRDTSTSTVYMELSSLRSEDTAVYYCARYFFGSSPNWYFDVWGQGTLVTVSSASTKGPSVFPLAPCSRSTSESTAALGCLVKDYFPEPVTVSWNSGALTSGVHTFPAVLQSSGLYSLSSVVTVPSSNFGTQTYTCNVDHKPSNTKVDKTVERKCCVECPPCPAPPVAGPSVFLFPPKPKDTLMISRTPEVTCVVVDVSQEDPEVQFNWYVDGVEVHNAKTKPREEQFNSTYRVVSVLTVLHQDWLNGKEYKCKVSNKGLPSSIEKTISKAKGQPREPQVYTLPPSQEEMTKNQVSLTCLVKGFYPSDIAVEWESNGQPENNYKTTPPVLDSDGSFFLYSRLTVDKSRWQEGNVFSCSVMHEALHNHYTQKSLSLSLGK
chain 2: DIQMTQSPSSLSASVGDRVTITCGASENIYGALNWYQQKPGKAPKLLIYGATNLADGVPSRFSGSGSGTDFTLTISSLQPEDFATYYCQNVLNTPLTFGQGTKVEIKRTVAAPSVFIFPPSDEQLKSGTASVVCLLNNFYPREAKVQWKVDNALQSGNSQESVTEQDSKDSTYSLSSTLTLSKADYEKHKVYACEVTHQGLSSPVTKSFNRGEC
Consider B1, for which the dissociation constant (Kd) with FcγRIIa was found to be 2580 nM; in the assay with FcγRIIb/c it was 9840 nM.

B2: EHL004 (antibody, V domains shown)
VH: QVQLVQSGAEVKKPGASVKVSCKASGYIFSNYWIQWVRQAPGQGLEWMGEILPGSGHTEYTENFKDRVTMTRDTSTSTVYMELSSLRSEDTAVYYCARYFFGSSPNWYFDVWGQGTLVTVSS
VL: DIQMTQSPSSLSASVGDRVTITCGASENIYHALNWYQQKPGKAPKLLIYGATNLADGVPSRFSGSGSGTDFTLTISSLQPEDFATYYCQNVLNTPLTFGQGTKVEIK
For B2, the Kd in the assay with human C5 [1] amounted to 374 nM; with human C5 [2], 0.135 nM.

B3: EHL046 (antibody, V domains shown)
VH: QVQLVQSGAEVKKPGASVKVSCKASGHIFSNYWIQWVRQAPGQGLEWMGEIHPGSGSTEYTENFKDRVTMTRDTSTSTVYMELSSLRSEDTAVYYCARYFFGSSPNWYFDVWGQGTLVTVSS
VL: DIQMTQSPSSLSASVGDRVTITCGASENIYHALNWYQQKPGKAPKLLIYGATNLADGVPSRFSGSGSGTDFTLTISSLQPEDFATYYCQNVLNTPLTFGQGTKVEIK
In the assay with human C5 [2], B3 gave an equilibrium dissociation constant (Kd) of 1.15 nM.

B4: BHL011 (antibody, V domains shown)
VH: QVQLQQPGAELVRPGTSVKLSCKASGYTFTSSWMHWVKQRPGQGLEWIGVIDPSDSYTNYNQKFKGKATLTVDTSSSTAYMQLSSLTSEDSAVYYCARGGGSSYNRYFDVWGTGTTVTVSS
VL: NIMMTQSPSSLAVSAGEKVTMSCKSSQSVLYSSNQKNYLAWYQQKPGQSPKLLIYWASTRESGVPDRFTGSGSGTDFTLTISSVQAEDLAVYYCAQYLSSRTFGGGTKLEIKR
Consider B4, for which the dissociation constant Kd in the assay with mouse C5 [3] came to 53.6 nM; in the assay with mouse C5 [4] it was 0.0952 nM.

B5: BHL009 (antibody)
chain 1: QVQLQQPGAELVRPGTSVKLSCKASGYTFTSSWMHWVKQRPGQGLEWIGVIDPHDSYTNYNQKFKGKATLTVDTSSSTAYMQLSSLTSEDSAVYYCARGGGSSYNRYFDVWGTGTTVTVSSASTKGPSVFPLAPCSRSTSESTAALGCLVKDYFPEPVTVSWNSGALTSGVHTFPAVLQSSGLYSLSSVVTVPSSNFGTQTYTCNVDHKPSNTKVDKTVERKCCVECPPCPAPPVAGPSVFLFPPKPKDTLMISRTPEVTCVVVDVSQEDPEVQFNWYVDGVEVHNAKTKPREEQFNSTYRVVSVLTVLHQDWLNGKEYKCKVSNKGLPSSIEKTISKAKGQPREPQVYTLPPSQEEMTKNQVSLTCLVKGFYPSDIAVEWESNGQPENNYKTTPPVLDSDGSFFLYSRLTVDKSRWQEGNVFSCSVLHEALHSHYTQKSLSLSLGK
chain 2: not shown
With B5, the binding result with mouse C5 [5] is reported as “no binding”. Besides, in the assay with mouse C5 [4], the affinity, expressed as Kd, was 4.19 nM.

B6: BHL006 (antibody)
chain 1: QVQLQQPGAELVRPGTSVKLSCKASGYTFTSSWMHWVKQRPGQGLEWIGVIDPHDSYTNYNQKFKGKATLTVDTSSSTAYMQLSSLTSEDSAVYYCARGGGSSYNRYFDVWGTGTTVTVSSASTKGPSVFPLAPCSRSTSESTAALGCLVKDYFPEPVTVSWNSGALTSGVHTFPAVLQSSGLYSLSSVVTVPSSNFGTQTYTCNVDHKPSNTKVDKTVERKCCVECPPCPAPPVAGPSVFLFPPKPKDTLMISRTPEVTCVVVDVSQEDPEVQFNWYVDGVEVHNAKTKPREEQFNSTYRVVSVLTVLHQDWLNGKEYKCKVSNKGLPSSIEKTISKAKGQPREPQVYTLPPSQEEMTKNQVSLTCLVKGFYPSDIAVEWESNGQPENNYKTTPPVLDSDGSFFLYSRLTVDKSRWQEGNVFSCSVMHEALHNHYTQKSLSLSLGK
chain 2: not shown
Take B6: the binding result with mouse C5 [5] is listed as “no binding”. The molecule further yielded a dissociation constant (Kd) in the assay with mouse C5 [4] of 3.49 nM.
